What was measured:
Conditions in all cases: remark: other sources report otherwise
[1] = target: T1, wild type (WT) human peripheral myelin protein 22 (PMP22) (human), Q01453; test: cross-linking
T1 chain: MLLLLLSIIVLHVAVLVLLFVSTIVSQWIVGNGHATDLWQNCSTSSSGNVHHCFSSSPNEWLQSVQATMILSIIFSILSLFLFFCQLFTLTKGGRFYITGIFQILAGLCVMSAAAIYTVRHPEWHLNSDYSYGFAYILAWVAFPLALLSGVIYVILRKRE

[2] = target: T1, wild type (WT) human peripheral myelin …; test: cross-linking
[3] = target: T1, wild type (WT) human peripheral myelin …; test: cross-linking
[4] = target: T1, wild type (WT) human peripheral myelin …; test: cross-linking
[5] = target: T1, wild type (WT) human peripheral myelin …; test: SEC

B1: wild type (WT) human peripheral myelin protein 22 (PMP22), Q01453 1-160 (natural protein)
chain: MLLLLLSIIVLHVAVLVLLFVSTIVSQWIVGNGHATDLWQNCSTSSSGNVHHCFSSSPNEWLQSVQATMILSIIFSILSLFLFFCQLFTLTKGGRFYITGIFQILAGLCVMSAAAIYTVRHPEWHLNSDYSYGFAYILAWVAFPLALLSGVIYVILRKRE
- fraction of cross-linked dimer [1]: 0.6
- fraction of cross-linked dimer [2]: 0.5
- stoichiometry N [2]: 2
- fraction of cross-linked dimer [3]: 0.2
- fraction of cross-linked dimer [4]: 0.3
- stoichiometry N [5]: 2

Source: PMC3762913
